The chains are these.
B1: GH2-23 IgG (antibody, V domains shown)
VH: EVQLVESGGGLVQPGGSLRLSCAASGFTINGGGIHWVRQAPGKGLEWVAFIGPFGGSTFYADSVKGRFTISADTSKNTAYLQMNSLRAEDTAVYYCARFFGGNIHVMDYWGQGTLVTVSS
VL: DIQMTQSPSSLSASVGDRVTITCRASQDVFWGVAWYQQKPGKAPKLLISWSASLYSGVPSRFSGSGSGTDFTLTISSLQPEDFATYYCQQYFSFPFTFGQGTKVEIK
notes: source: HEK293-F, transient transfection, purified (Protein A, Superdex 200)
B2: GH2-7 IgG (antibody, V domains shown)
VH: EVQLVESGGGLVQPGGSLRLSCAASGFTIDDYFIHWVRQAPGKGLEWVAGIGPSWGYTFYADSVKGRFTISADTSKNTAYLQMNSLRAEDTAVYYCARFGHNFVNGMDYWGQGTLVTVSS
VL: DIQMTQSPSSLSASVGDRVTITCRASQDVSGWVAWYQQKPGKAPKLLISGTAGLYSGVPSRFSGSGSGTDFTLTISSLQPEDFATYYCQQYYDFPVTFGQGTKVEIK
notes: as for B1
B3: GH2-59 IgG (antibody, V domains shown)
VH: EVQLVESGGGLVRPGGSLRLSCAASGFTIGDWYIHWVRQAPGKGLEWVAGIGPYWGYTSYADSVKGRFTISADTSKNTAYLQMNSLRAEDTAVYYCARFVGDVWHDMDYWGQGTLVAVSS
VL: DIQMTQSPSSLSASVGDRVTITCRASQDVSGGVAWYQQKPGKAPKLLISWTGSLYSGVPSRFSGSGSGTDFTLTISSLQPEDFATYYCQQWSDFPITFGQGTKVEIK
notes: as for B1
B4: GH2-60 IgG (antibody, V domains shown)
VH: EVQLVESGGGLVQPGGSLRLSCAASGFTISDFGIHWVRQAPGKGLEWVAGIWPYWGYTYYADSVKGRFTISADTSKNTAYLQMNSLRAEDTAVYYCARFWNIYWNVMDYWGQGTLVTVSS
VL: DIQMTQGPSSLSASVGDRVTITCRASQDVGSWVAWYQQKPGKAPKLLISSPPSLYSGVPSRFSGSGSGTDFTLTISSLQPEDFATYYCQQGFDSPITFGQGTKVEIK
notes: as for B1
B5: GH2-42 IgG (antibody, V domains shown)
VH: EVQLVESGGGLVQPGGSLRLSCAASGFTISNWGIHWVRQAPGKGLEWVAGIGPYGGYTSYADSVKGRFTISADTSKNTAYLQMNSLRAEDTAVYYCARFGFYFDGIMDYWGQGTLVTVSS
VL: DIQMTQSPSSLSASVGDRVTITCRASQDVSSGVAWYQQKPGKAPKLLISGPTGLYSGVPSRFSGSGSGTDFTLTISSLQPEDFATYYCQQYYDWPLTFGQGTKVKRG
notes: as for B1
B6: GH2-3 IgG (antibody, V domains shown)
VH: EVQLVESGGGLVQPGGSLRLSCAASGFTISGGWIHWVRQAPGKGLEWVAGIWPSGGSTSYADSVKGRFTISADTSKNTAYLQMNSLRAEDTAVYYCARFYFGFGDLMDYWGQGTLVTVSS
VL: DIQMTQSPSSLSASVGDRVTITCRASQDVNNNVAWYQQKPGKAPKLLIYGARYLYSGVPSRFSGSGSGTDFTLTISSLQPEDFATYYCQQFGGGPLTFGQGTKVEIK
notes: as for B1
B7: GH2-61 IgG (antibody, V domains shown)
VH: EVQLVESGGGLVQPGGSLRLSCAASGFTINNWGIHWVRQAPGKGLEWVAGIWPYGGYTYYADSVKGRFTISADTSKNTAYLQMNSLRAEDTAVYYCARFYNHHGGVMDYWGQGTLVTVSS
VL: DIQMTQSPSSLSASVGDRVTITCRASQDVGSNVAWYQQKPGKAPKLLISWSTSLYSGVPSRFSGSGSGTDFTLTISSLQPEDFATYYCQQYGGWPITFGQGTKVEIK
notes: as for B1
B8: GH2-54 IgG (antibody, V domains shown)
VH: EVQLVESGGGLVQPGGSLRLSCAASGFTISDGSIHWVRQAPGKGLEWVAFIGPYWGFTYYADSVKGRFTISADTSKNTAYLQMNSLRAEDTAVYYCARFVNWVHYGMDYWGQGTLVTVSS
VL: DIQMTQSPSSLSASVGDRVTITCRASQDVNDNVAWYQQKPGKAPKLLIFGSSSLYSGVPSRFSGSGSGTDFTLTISSLQPEDFATYYCQQGWNYPFTFGQGTKVEIK
notes: as for B1
B9: GH2-40 IgG (antibody, V domains shown)
VH: EVQLVESGGGLVQPGGSLRLSCAASGFTINSWGIHWVRQAPGKGLEWVAWIGPYWGFTSYADSVKGRFTISADTSKNTAYLQMNSLRAEDTAVYYCARFDGHFDGVMDYWGQGTLVTVSS
VL: DIQMTQSPSSLSASVGDRVTITCRASQDVNNGVAWYQQKPGKAPKLLISGTPWLYSGVPSRFSGSGSGTDFTLTISSLQPEDFATYYCQQYFDWPLTFGQGTKVEIK
notes: as for B1
B10: GH2-16 IgG (antibody, V domains shown)
VH: EVQLVESGGGLVQPGGSLRLSCAASGFTINNWGIHWVRQAPGKGLEWVAGIWPFGGYTYYADSVKGRFTISADTSKNTAYLQMNSLRAEDTAVYYCARFDYLNNGGMDYWGQGTLVTVSS
VL: DIQMTQSPSSLSASVGDRVTITCRASQDVYSSVAWYQQKPGKAPKLLISYTSYLYSGVPSRFSGSGSGTDFTLTISSLQPEDFATYYCQQYYGGPMTFGQGTKVEIK
notes: as for B1
B11: GH2-36 IgG (antibody, V domains shown)
VH: EVQLVESGGGLVQPGGSLRLSCAASGFTIGGGGIHWVRQAPGKGLEWVAYIGPYGGYTSYADSVKGRFTISADTSKNTAYLQMNSLRAEDTAVYYCARFHDHIGGIMDYWGQGTLVTVSS
VL: DIQMTQSPSSLSASVGDRVTITCRASQDVNSNVAWYQQEPGKAPKLLIYFSSGLYSGVPSRFSGSGSGTDFTLTISSLQPEDFATYYCQQYYNWPLTFGQGTKVEIK
notes: as for B1
B12: GH2-18 IgG (antibody, V domains shown)
VH: EVQLVESGGGLVQPGGSLRLSCAASGFTISNWGIHWVRQAPGKGLEWVAGIWPYGGYTFYADSVKGRFTISADTSKNTAYLQMNSLRAEDTAVYYCARFNYLNLGGMDYWGQGTLVTVSS
VL: DIQMTQSPSSLSASVGDRVTITCRASQDVNSNVAWYQQKPGKAPKLLIYWTTGLYSGVPSRFSGSGSGTDFTLTISSLQPEDFATYYCQQYLSGPITFGQGTKVEIK
notes: as for B1
B13: GH2-21 IgG (antibody, V domains shown)
VH: EVQLVESGGGLVQPGGSLRLSCAASGFTINDYSIHWVRQAPGKGLEWVASIWPFGGSTSYADSVKGRFTISADTSKNTAYLQMNSLRAEDTAVYYCARFNYWIGIIMDYWGQGTLVTVSS
VL: DIQMTQSPSSLSASVGDRVTITCRASQDVSDNVAWYQQKPGKAPKLLIYWATGLYSGVPSRFSGSGSGTDFTLTISSLQPEDFATYYCQQYYGFPLTFGQGTKVEIK
notes: as for B1

For this experiment, the target named is T1, extracellular domain (ECD) of human epidermal growth factor receptor 2 (HER2) (Homo sapiens, UniProt P04626).
T1 construct: human epidermal growth factor receptor 2 (HER2), extracellular domain; also called HER2/ECD
As to the kind of experiment: SPR; BIAcore T200; HER2/ECD immobilised on a CM5 chip by amine coupling to 1000 RU; IgG flowed in PBST (0.05% Tween 20) at 30 uL/min; regeneration 10 mM glycine pH 1.5; global fit to a 1:1 binding model. Particulars: both partners purified. A general note: Surface plasmon resonance follows binding to a sensor surface in real time, without labels.
Consider B1, for which the Kd (in general, a measure of binding affinity in units of concentration) worked out at 0.827 nM; the koff – broadly, the first-order rate constant of dissociation – is 0.00018 s⁻¹; the kon (as a rule, the rate constant with which the complex forms) amounted to 217000 M⁻¹ s⁻¹.

The molecule B2 yielded an equilibrium dissociation constant (Kd) of 9.84 nM, an off-rate constant (koff) of 0.0608 s⁻¹ and an on-rate (kon) of 6.18e+06 M⁻¹ s⁻¹.

The molecule B3 returned a Kd of 6.02 nM, an off-rate constant (koff) of 0.000288 s⁻¹ and an association rate constant (kon) of 47800 M⁻¹ s⁻¹.

As for B4, binding was put at a Kd of 1.53 nM, the koff is 0.00556 s⁻¹ and the kon came to 3.64e+06 M⁻¹ s⁻¹.

With B5, the Kd turned out to be 0.169 nM, the koff is 0.000235 s⁻¹ and the on-rate constant (kon) came to 1.39e+06 M⁻¹ s⁻¹.

Regarding B6, the Kd turned out to be 2.07 nM, the koff came to 0.000502 s⁻¹ and the on-rate constant (kon) was found to be 242000 M⁻¹ s⁻¹.

In turn, B7 showed an equilibrium dissociation constant (Kd) of 0.27 nM, an off-rate constant (koff) of 0.000104 s⁻¹ and a kon of 387000 M⁻¹ s⁻¹.

On to B8, for which the equilibrium dissociation constant (Kd) turned out to be 37.9 nM, the koff worked out at 0.0128 s⁻¹ and the association rate constant (kon) stood at 339000 M⁻¹ s⁻¹.

Consider B9, for which binding was put at a Kd of 3.04 nM, the off-rate (koff) came out at 0.000217 s⁻¹ and the on-rate (kon) worked out at 71200 M⁻¹ s⁻¹.

Consider B10, for which the Kd is 1.2 nM, the koff was determined as 0.000102 s⁻¹ and the association rate constant (kon) was 85700 M⁻¹ s⁻¹.

The molecule B11 gave a Kd of 8.85 nM, a koff of 7.7 s⁻¹ and a kon of 8.68e+08 M⁻¹ s⁻¹.

On to B12, for which the Kd was found to be 0.0695 nM, the koff was determined as 1.09e-05 s⁻¹ and the kon was found to be 156000 M⁻¹ s⁻¹.

Molecule B13 yielded a Kd of 1.4 nM, a koff of 0.000623 s⁻¹ and an on-rate (kon) of 444000 M⁻¹ s⁻¹.

(Values after article PMC5378893 (Scientific Reports, 2015).)
